Columns and labels:
[1] = target: ZZ peptide displayed on the CHO cell surface with the murine B7-1 transmembrane domain (from pEF1α-ZZ-B7); test: flow cytometry on cells; stable CHO-ZZ cells (2 x 10^5 cells/sample) incubated with an excess of fluorescein-conjugated IgG of Table 2 for 40 min at 4 °C, washed with PBS; percentage of positive cells
[2] = target: ZZ peptide displayed on the CHO cell surface with the human PDGFR transmembrane domain (from pEF1α-ZZ-PDGFR); test: flow cytometry on cells; CHO cells transiently transfected with the ZZ display plasmid, labelled with hIgG-FITC; percentage of ZZ-positive cells
[3] = target: ZZ peptide displayed on the CHO cell surface with the murine B7-1 transmembrane domain (from pEF1α-ZZ-B7); test: as above

Row | Substance | percentage of positive cells [1] [%] | percentage of ZZ-positive cells [2] [%] | percentage of ZZ-positive cells [3] [%]
1 | Donkey Anti-Rabbit IgG (H + L)-Cy3 (Jackson ImmunoResearch Laboratories 711-165-152) (antibody) | 100 |  | 
2 | Human IgG-FITC (Bersee BFR550) (antibody) | 100 | 6.9 | 43.6
3 | Rb pAb to 6× His tag (FITC) (Abcam Ab1206-250) (antibody) | 100 |  | 
4 | Rb pAb to HA tag (PE) (Abcam Ab72564) (antibody) | 100 |  | 
